Reference: patent publication US9976134B2, “Thermolysin variants” (Danisco US Inc., priority 2007, dated 2018)
Changes are numbered by the printed parent chain. In names and notes the source's numbering stands.

B1: I156E: single-substitution thermolysin variant (SEQ ID NO:3 numbering) (protein, listed as Geobacillus caldoproteolyticus)
chain: ITGTSTVGVGRGVLGDQKNINTTYSTYYYLQDNTRGNGIFTYDAKYRTTLPGSLWADADNQFFASYDAPAVDAHYYAGVTYDYYKNVHNRLSYDGNNAAIRSSVHYSQGYNNAFWNGSQMVYGDGDGQTFIPLSGGIDVVAHELTHAVTDYTAGLEYQNESGAINEAISDIFGTLVEFYANKNPDWEIGEDVYTPGISGDSLRSMSDPAKYGDPDHYSKRYTGTQDNGGVHINSGIINKAAYLISQGGTHYGVSVVGIGRDKLGKIFYRALTQYLTPTSNFSQLRAAAVQSATDLYGSTSQEVASVKQAFDAVGVK
B2: Y151A: single-substitution thermolysin variant (SEQ ID NO:3 numbering) (protein, listed as Geobacillus caldoproteolyticus)
chain: B1 chain with Y151A, E156I
B3: T006A: single-substitution thermolysin variant (SEQ ID NO:3 numbering) (protein, listed as Geobacillus caldoproteolyticus)
chain: B1 chain with T6A, E156I
B4: Y151C: single-substitution thermolysin variant (SEQ ID NO:3 numbering) (protein, listed as Geobacillus caldoproteolyticus)
chain: B1 chain with Y151C, E156I
B5: S065C: single-substitution thermolysin variant (SEQ ID NO:3 numbering) (protein, listed as Geobacillus caldoproteolyticus)
chain: B1 chain with S65C, E156I
B6: Q128C: single-substitution thermolysin variant (SEQ ID NO:3 numbering) (protein, listed as Geobacillus caldoproteolyticus)
chain: B1 chain with Q128C, E156I
B7: N280L: single-substitution thermolysin variant (SEQ ID NO:3 numbering) (protein, listed as Geobacillus caldoproteolyticus)
chain: B1 chain with E156I, N280L
B8: N280I: single-substitution thermolysin variant (SEQ ID NO:3 numbering) (protein, listed as Geobacillus caldoproteolyticus)
chain: B1 chain with E156I, N280I
B9: N280S: single-substitution thermolysin variant (SEQ ID NO:3 numbering) (protein, listed as Geobacillus caldoproteolyticus)
chain: B1 chain with E156I, N280S
B10: S065V: single-substitution thermolysin variant (SEQ ID NO:3 numbering) (protein, listed as Geobacillus caldoproteolyticus)
chain: B1 chain with S65V, E156I
B11: A056C: single-substitution thermolysin variant (SEQ ID NO:3 numbering) (protein, listed as Geobacillus caldoproteolyticus)
chain: B1 chain with A56C, E156I
B12: T049S: single-substitution thermolysin variant (SEQ ID NO:3 numbering) (protein, listed as Geobacillus caldoproteolyticus)
chain: B1 chain with T49S, E156I
B13: S065E: single-substitution thermolysin variant (SEQ ID NO:3 numbering) (protein, listed as Geobacillus caldoproteolyticus)
chain: B1 chain with S65E, E156I
B14: Q128T: single-substitution thermolysin variant (SEQ ID NO:3 numbering) (protein, listed as Geobacillus caldoproteolyticus)
chain: B1 chain with Q128T, E156I
B15: N280M: single-substitution thermolysin variant (SEQ ID NO:3 numbering) (protein, listed as Geobacillus caldoproteolyticus)
chain: B1 chain with E156I, N280M
B16: Q061M: single-substitution thermolysin variant (SEQ ID NO:3 numbering) (protein, listed as Geobacillus caldoproteolyticus)
chain: B1 chain with Q61M, E156I
B17: Q061E: single-substitution thermolysin variant (SEQ ID NO:3 numbering) (protein, listed as Geobacillus caldoproteolyticus)
chain: B1 chain with Q61E, E156I
B18: A058E: single-substitution thermolysin variant (SEQ ID NO:3 numbering) (protein, listed as Geobacillus caldoproteolyticus)
chain: B1 chain with A58E, E156I
B19: A056E: single-substitution thermolysin variant (SEQ ID NO:3 numbering) (protein, listed as Geobacillus caldoproteolyticus)
chain: B1 chain with A56E, E156I
B20: A058C: single-substitution thermolysin variant (SEQ ID NO:3 numbering) (protein, listed as Geobacillus caldoproteolyticus)
chain: B1 chain with A58C, E156I
B21: S065D: single-substitution thermolysin variant (SEQ ID NO:3 numbering) (protein, listed as Geobacillus caldoproteolyticus)
chain: B1 chain with S65D, E156I
B22: S065W: single-substitution thermolysin variant (SEQ ID NO:3 numbering) (protein, listed as Geobacillus caldoproteolyticus)
chain: B1 chain with S65W, E156I
B23: S065P: single-substitution thermolysin variant (SEQ ID NO:3 numbering) (protein, listed as Geobacillus caldoproteolyticus)
chain: B1 chain with S65P, E156I

assay: Stability assay in 25% TIDE 2X detergent with DTPA (residual Abz-AGLA-Nba protease activity); assay type: physicochemical; settings: 60 min at 32°C; variant residual AGLA activity divided by wild-type residual activity
Experimental: (§1) The stability of thermolysin and variants thereof was measured after incubation under defined conditions in the presence of 25% TIDE® 2× detergent. The initial and residual activity was determined.
(§2) MTPs were obtained from Costar (type 9017) and from Greiner (black plate, type 655076). Test Method Unstressed Conditions:
(§3) First, 20 μl thermolysin containing culture supernatant was diluted with 180 μl MES assay buffer. Then, 20 μl diluted supernatant was diluted further with 180 μl MES assay buffer. Subsequently 10 μl of this dilution was transferred into 190 μl AGLA-substrate solution in a pre-warmed plate (Greiner 655076) at 25° C. Any air bubbles present were blown away and the plate was measured according to the AGLA protease assay protocol described below.
(§4) First, 20 μl of culture supernatant was diluted with 180 μl 27.5% TIDE®+detergent solution and placed in the iEMS shaker. The plate covered with a plate seal was incubated for a total of 60 minutes at 32° C. at 900 rpm. In addition, 20 μl of culture supernatant was diluted with 180 μl 27.5% TIDE®−solution and placed in the iEMS shaker. This plate covered with a plate seal was incubated for a total of 180 minutes at 50° C. at 900 rpm.
(§5) Subsequently after the respective incubations, 20 μl of either of these solutions were diluted with 180 μl MES assay buffer and 10 μl of this dilution were diluted with 190 μl AGLA-substrate solution in a pre-warmed plate (Greiner 655076) at 25° C.
(§6) Fluorescence measurements were taken at excitation of 350 nm and emission of 420 nm. The spectrofluorometer software calculated the reaction rates (=slope) of the increase in fluorescence for each well to a linearly regressed line of (milli-) RFU/min. The ratio of the residual and initial AGLA activity was used to express the 25% TIDE® 2× stability as follows: Percentage of residual activity=[slope of stressed]*100/[slope of unstressed]
(§7) For each sample (thermolysin and variants thereof) the performance index was calculated by dividing the residual activity of the variant by the residual activity of thermolysin. The performance index compared the stability of the variant and the standard thermolysin enzyme (e.g., wild type or parental enzyme), determined under the same conditions.
(§8) In these experiments, the liberation of Abz-AG by protease cleavage of Abz-AGLA-Nba was monitored by fluorescence spectrometry (Ex. 350/Em. 420). The rate of appearance of Abz-AG was a measure of proteolytic activity.
(§9) The Abz-AGLA-Nba assay solution was prepared by adding 1 ml of the Abz-AGLA-Nba stock to 19 ml MES substrate buffer and mixed well for at least 2 minutes. Subsequently the thermolysin or variants thereof containing culture supernatants were diluted with MES assay buffer to a concentration of 1-6 μg protein per ml.
(§10) The assay was performed by adding 10 μl of diluted protease solution to each well, followed by the addition of 190 μl Abz-AGLA-Nba assay solution that was pre-equilibrated for at least 15 minutes at 25° C. The solutions were vigorously mixed, and the liberation of Abz-AG by protease cleavage of Abz-AGLA-Nba was monitored by fluorescence spectrometry at 25° C. in kinetic mode with excitation set at 350 nm and emission set at 420 nm. The rate of appearance of Abz-AG was a measure of proteolytic activity in the samples. The protease activity was expressed as RFU (relative fluorescence units·min^−1).
(§11) As described in Example 1, the stability of thermolysin variants was measured by determining the AGLA activity before and after incubation in the presence of TIDE® 2× heavy duty liquid (HDL) detergent at an elevated temperature. The tables contain the relative stability values compared to wild-type thermolysin, which is the quotient of the variant residual activity divided by the wild-type residual activity. A value greater than one indicates higher stability in the presence of detergent. […]

Row | Molecule | PI (relative stability), 25% TIDE 2X with DTPA
1 | B1 | 1.58
2 | B2 | 1.15
3 | B3 | 1.01
4 | B4 | 1.25
5 | B5 | 1.05
6 | B6 | 1.01
7 | B7 | 1.21
8 | B8 | 1.16
9 | B9 | 1.19
10 | B10 | 1.08
11 | B11 | 1.01
12 | B12 | 1.08
13 | B13 | 1.08
14 | B14 | 1.18
15 | B15 | 1.16

assay: Stability assay in 25% TIDE 2X detergent without DTPA (residual Abz-AGLA-Nba protease activity); assay type: physicochemical; settings: 180 min at 50°C; variant residual AGLA activity divided by wild-type residual activity
Experimental: as §1, §2, §3, §4, §5, §6, §7, §8, §9, §10, §11

Row | Molecule | PI (relative stability), 25% TIDE 2X without DTPA
16 | B1 | 1.09
17 | B2 | 1.24
18 | B4 | 1.09
19 | B5 | 1.14
20 | B6 | 1.05
21 | B16 | 1.01
22 | B17 | 1.05
23 | B18 | 1.24
24 | B19 | 1.07
25 | B20 | 1.01
26 | B10 | 1.08
27 | B11 | 1.19
28 | B21 | 1.20
29 | B12 | 1.26
30 | B13 | 1.34
31 | B22 | 1.09
32 | B14 | 1.15
33 | B23 | 1.18
